Measured values taken from the nanobody polyreactivity screen of Harvey et al. (2022).

Experiment: yeast display, Sf9 membrane polyspecificity reagent, FACS + sequencing; frameworks hold sequencing errors
Outline: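 Genes from sorted yeast were amplified by colony PCR, read by MiSeq 2 × 250 sequencing and filtered on CDR length. These cells carried a synthetic nanobody library in Saccharomyces cerevisiae BJ5465 and were sorted by FACS into low and high (top ~1%) gates on anti-HA and streptavidin fluorescence. Polyreactivity is labelled according to the gate of origin.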

Sequence	polyreactivity (PSR sort gate)
QVQLVESAGGLVQAGGRLRLSCAASGFIFYRYAMGWYRQAPGKERELVAAISRNGGSTYYADSVKGRFTISRDNAKNTVYLQRNILKPEDTAVYYCNVDYRLVRIRVDYEYWGQGTQVTVSS	high polyreactivity
QVQLVESGGGLVQAGGSLRLSCAASGRTFIPYAMGWYRQAPGKERELVAAIRTTGGSTNYADSVKGRFTISRDNAKNTVYLQMNSLKPEDTAVYYCAATSRQRPYDYWGQGTQVTVSS	high polyreactivity
QVQLVESGGGLVQAGGSLRLSCAASGSIFPAYDMGWYRQAPGKERELVAAIDRGGSTYYADSVKGRFTISRDNAKNTVYLQMNSLKPEDTAVYYCATGYWNTSVYVRLEKRDYWGQGTQVTVSS	low polyreactivity
QVQLVESGRGLVQAGGSLRLSCAASGRTFYYYTMGWYRQAPGKERELVAAISYSGGSTSYADSVKGRFTISRYNAKNTVYLQMNRLKPEDTAVYYCNAPYKYYTQRRYHYDYCGQGTQVTVSS	high polyreactivity
QVQLVESGGGLVQAGGSLRLSCAASGITFPINAMGWYRQAPGKEREFVATISFSGASTYYADSVKGRFTISRDNAKNTVYLQMNSLKPEDTAVYYCAADLSLSTGGRAFPTYGYWGQGTQVTVSS	high polyreactivity
QVQLVESGGGLVQAGGSLRLSCAASGFIFKSYTMGWYRQAPGKERELVAAITWSGDSTYADSVKGRFTISRDNAKNTVYLQMNSLKPEDTAVYYCAKNYAYLYYSWGQGTQVTVSS	low polyreactivity
QVQLVESGGGLVQAGGSLRLSCAASGFIFPFYAMGWYRQAPGKERELVAGIRGVGSTNYADSVKGRFTISRDNAKNTVYLQMNSLKPEDTAVYYCNKELYDFKDRNLTAFLLRIFDSWGQGTQVTVSS	low polyreactivity
QVQLVESGGGLVQAGGSLRLSCAASGGNFAEYVMGWYRQAPGKERELVAAIDWSGGSTYYADSVKGRFTISRDNAKNTVYLQMNSLKPEDTAVYYCNADGPLDRYEYWGQGTQVTVSS	low polyreactivity
QVQLVESGGGLVQAGGSLSLSCAASGRTFGPYAMGWYRKAPGKERELVAVISGRGTSTYYADSVKGRFTISRDNAKNTVYLQMNSLKPEDTAVYYCNADYGSWYWGFDYWGQGTQVTVSS	low polyreactivity
QVQLVESGGGLVQAGGSLRLSCAASGSIFWRNAMGWYRQAPGKERALVAAISGNGGTTYYADSVKGRFTISRDYAKNTVYLQINSLKPEDTAVYYCAKVGKTYRTYEDWGQGTQVTVSS	high polyreactivity
QVQLVESGGGLVQAGGSLRLSSAASGRTFSRYVMGWSRQAPGKERELVATISRSGGSTFYADSVKGRFTISRDNAKNTVYLQMNSLKPEDTAVYYCNKKVQGYQVTYGYWGQGTQVTVSS	high polyreactivity
QVQLVESGGGLDQAGGSLRLSCAASGRTFYVYGMGWSRQAPGKERELVAAIRSSGGSTYADSVKGRFTISRDNAKKTVYLQMNSLKPEDTAVDYCAADRRYAESGYYWGQGTQVTVSS	high polyreactivity
QVQLVESGGGLVQAGGSLRLSCAASGSIFYDYVMGWYRQAPGKERELVAAITRGGRTYYADSVKGRFTISRDNAKNTVYLQMNSLKPEDTAVYYCNAGRHQGYDWGQGTQVTVSS	high polyreactivity
QVQLVESGGGLVQAGGSLRLSCAASGLTCSRNAMGWYRQAPGKERELVAAINWSGGSTYYADSVKGRFTISRDNAKNTVYLQMNSLKPEDTAVYYCAAEYAPSPYDWGYEYWGQGTQVTLSS	high polyreactivity
QVQLVETGGGLVQAGGSLRLSCAASGSIFIYYAMGWYRQAPGKERELVAAIRLSSGSTYYADSVKGRFTISRDNSKNTVYLQMIRLKPEYTAVYYCAARRKRPFSVYDHWGKGTQVTVSS	high polyreactivity
QVQLVESGGGLVQAGGSLRLSCAASGITLHHNAMGWYRQAPGKERELVAAITSNGGSTYYADSVKGRFTISRDNAKNTVYLQMNSLKPEDTAVYYCARDSKRLARYYYWGQGTQVTVSS	low polyreactivity
QVQLVESGGGLVQAGGSLRLSCAASGYIFVSNAMGWNRQEPGKERELVAPISGSGGSTYYADSVKGRFTISRDIAKNTVYLQMNSLKPEDTAVYSCAADYATVTWRGIAYDYWGQGTQVTVSS	low polyreactivity
